Results taken from paper PMC12091997.

What was measured:
[1] = biological target: His6-tagged human GBP1 C589S (CaaX box mutant) (human) (UniProt P32455); experiment: SEC; Superdex 200 10/300 GL on AKTA FPLC; 100 ug protein; 20 mM Tris (7.5), 140 mM NaCl, 2 mM MgCl2 with 200 uM GDP-AlF4- (transition state analogue); monomer to dimer
[2] = biological target: tag-free recombinant human GBP1, farnesylated (human) (UniProt P32455); experiment: cryo-EM structure; cryo-electron tomography (300 kV) with sub-tomogram averaging of tag-free GBP1 coat assembled on Stm ΔwaaG::pBAD-ftsZ OMVs/minicells in the presence of GTP; 12,858 particles; dimer mask and monomer mask

| stoichiometry N [1] | stoichiometry N [2] | Substance |
| --- | --- | --- |
| 2 | – | His6-tagged human GBP1 C589S (CaaX box mutant) (from UniProt P32455 1-592) (natural protein) |
| – | 2 | tag-free recombinant human GBP1, farnesylated (from UniProt P32455 1-592) (natural protein) |
